Source: patent publication US20220119549A1 (TAVOTEK BIOTHERAPEUTICS HONG KONG, published 2022)

B1: TAVO192193 (antibody, human IgG1, kappa)
heavy: GIVEECCFRSCDLALLETYCAGGGGSIPVSLRSGGGGGSEVQLVESGGGLVQPGGSLRLSCAASGFDFADYAMHWVRQAPGKGLEWVSAITWNGGHTDYADSVKGRFTISRDNSKNTLYLQMNSLRAEDTAVYYCAKVSYLSTASSLDYWGQGTLVTVSSASTKGPSVFPLAPSSKSTSGGTAALGCLVKDYFPEPVTVSWNSGALTSGVHTFPAVLQSSGLYSLSSVVTVPSSSLGTQTYICNVNHKPSNTKVDKKVEPKSCDKTHTCPPCPAPPAAGPSVFLFPPKPKDTLMISRTPEVTCVVVDVSHEDPEVKFNWYVDGVEVHNAKTKPREEQYNSTYRVVSVLTVLHQDWLNGKEYKCKVSNKALPAPIEKTISKAKGQPREPQVYTLPPSRDELTKNQVSLTCLVKGFYPSDIAVEWESNGQPENNYKTTPPVLDSDGSFLLYSKLTVDKSRWQQGNVFSCSVLHEALHSHYTQKSLSLSPGK
light: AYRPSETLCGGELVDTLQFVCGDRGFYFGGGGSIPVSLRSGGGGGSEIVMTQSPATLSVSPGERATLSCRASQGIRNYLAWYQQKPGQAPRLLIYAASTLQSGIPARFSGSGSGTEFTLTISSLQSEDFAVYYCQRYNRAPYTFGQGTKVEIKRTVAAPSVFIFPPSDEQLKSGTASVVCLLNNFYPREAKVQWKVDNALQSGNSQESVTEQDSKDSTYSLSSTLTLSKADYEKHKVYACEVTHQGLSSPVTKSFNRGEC
notes: Undigested; also called anti-TNFα shielded antibody with IGF2-based masking domain; EAC192/EAC193
B2: TAVO167127 (antibody, human IgG1, kappa)
heavy: EVQLVESGGGLVQPGGSLRLSCAASGFDFADYAMHWVRQAPGKGLEWVSAITWNGGHTDYADSVKGRFTISRDNSKNTLYLQMNSLRAEDTAVYYCAKVSYLSTASSLDYWGQGTLVTVSSASTKGPSVFPLAPSSKSTSGGTAALGCLVKDYFPEPVTVSWNSGALTSGVHTFPAVLQSSGLYSLSSVVTVPSSSLGTQTYICNVNHKPSNTKVDKKVEPKSCDKTHTCPPCPAPPAAGPSVFLFPPKPKDTLMISRTPEVTCVVVDVSHEDPEVKFNWYVDGVEVHNAKTKPREEQYNSTYRVVSVLTVLHQDWLNGKEYKCKVSNKALPAPIEKTISKAKGQPREPQVYTLPPSRDELTKNQVSLTCLVKGFYPSDIAVEWESNGQPENNYKTTPPVLDSDGSFLLYSKLTVDKSRWQQGNVFSCSVLHEALHSHYTQKSLSLSPGK
light: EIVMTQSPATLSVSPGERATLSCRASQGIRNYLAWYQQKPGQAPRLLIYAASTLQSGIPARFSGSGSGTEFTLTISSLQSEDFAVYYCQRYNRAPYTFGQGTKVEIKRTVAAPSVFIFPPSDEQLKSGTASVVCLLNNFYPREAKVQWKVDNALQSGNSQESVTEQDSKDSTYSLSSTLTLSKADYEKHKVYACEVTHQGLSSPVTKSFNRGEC
notes: Control antibody, ADA-H2X / ADA-L1 variable domains, IgG1 Fc with E233P, L234A, L235A, F405L, M428L, N434S and G236 deleted; also called active anti-TNFα antibody without the IGF2-based masking domain; unmasked anti-TNFα antibody
B3: TAVO186187 (antibody, human IgG1, kappa)
heavy: GIVEECCFRSCDLALLETYCAGGGGSGPLGVRGGGGSEVQLVESGGGLVQPGGSLRLSCAASGFDFADYAMHWVRQAPGKGLEWVSAITWNGGHTDYADSVKGRFTISRDNSKNTLYLQMNSLRAEDTAVYYCAKVSYLSTASSLDYWGQGTLVTVSSASTKGPSVFPLAPSSKSTSGGTAALGCLVKDYFPEPVTVSWNSGALTSGVHTFPAVLQSSGLYSLSSVVTVPSSSLGTQTYICNVNHKPSNTKVDKKVEPKSCDKTHTCPPCPAPPAAGPSVFLFPPKPKDTLMISRTPEVTCVVVDVSHEDPEVKFNWYVDGVEVHNAKTKPREEQYNSTYRVVSVLTVLHQDWLNGKEYKCKVSNKALPAPIEKTISKAKGQPREPQVYTLPPSRDELTKNQVSLTCLVKGFYPSDIAVEWESNGQPENNYKTTPPVLDSDGSFLLYSKLTVDKSRWQQGNVFSCSVLHEALHSHYTQKSLSLSPGK
light: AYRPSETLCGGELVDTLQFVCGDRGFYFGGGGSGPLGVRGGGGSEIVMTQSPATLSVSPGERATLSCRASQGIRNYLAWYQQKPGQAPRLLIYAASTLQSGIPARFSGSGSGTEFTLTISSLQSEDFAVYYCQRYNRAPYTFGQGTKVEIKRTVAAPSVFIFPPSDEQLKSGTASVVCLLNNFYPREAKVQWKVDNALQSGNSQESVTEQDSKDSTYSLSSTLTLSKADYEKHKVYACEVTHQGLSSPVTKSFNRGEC
notes: Undigested; IGF2 A chain - MMP2/9 linker (GPLGVR) - heavy chain (ADA-H2X, IgG1 Fc mutant); IGF2 B chain - linker - light chain (ADA-L1); also called anti-TNFα shielded antibody with IGF2-based masking domain; EAC186/EAC187
B4: TAVO190191 (antibody, human IgG1, kappa)
heavy: GIVEECCFRSCDLALLETYCAGGGGSPLGLAGGGGGSEVQLVESGGGLVQPGGSLRLSCAASGFDFADYAMHWVRQAPGKGLEWVSAITWNGGHTDYADSVKGRFTISRDNSKNTLYLQMNSLRAEDTAVYYCAKVSYLSTASSLDYWGQGTLVTVSSASTKGPSVFPLAPSSKSTSGGTAALGCLVKDYFPEPVTVSWNSGALTSGVHTFPAVLQSSGLYSLSSVVTVPSSSLGTQTYICNVNHKPSNTKVDKKVEPKSCDKTHTCPPCPAPPAAGPSVFLFPPKPKDTLMISRTPEVTCVVVDVSHEDPEVKFNWYVDGVEVHNAKTKPREEQYNSTYRVVSVLTVLHQDWLNGKEYKCKVSNKALPAPIEKTISKAKGQPREPQVYTLPPSRDELTKNQVSLTCLVKGFYPSDIAVEWESNGQPENNYKTTPPVLDSDGSFLLYSKLTVDKSRWQQGNVFSCSVLHEALHSHYTQKSLSLSPGK
light: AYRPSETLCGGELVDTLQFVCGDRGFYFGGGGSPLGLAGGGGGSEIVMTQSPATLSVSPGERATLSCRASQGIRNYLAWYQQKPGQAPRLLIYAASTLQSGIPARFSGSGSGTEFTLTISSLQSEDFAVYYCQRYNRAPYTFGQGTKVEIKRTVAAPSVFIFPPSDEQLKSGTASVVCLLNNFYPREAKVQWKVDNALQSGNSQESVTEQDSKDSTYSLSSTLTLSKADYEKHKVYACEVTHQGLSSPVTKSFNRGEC
notes: Undigested; Native IGF2 A and B chains, MMP2/9 substrate PLGLAG; also called anti-TNFα shielded antibody with IGF2-based masking domain; EAC190/EAC191
B5: TAVO188189 (antibody, human IgG1, kappa)
heavy: GIVEECCFRSCDLALLETYCAGGGGSPLGLARGGGGSEVQLVESGGGLVQPGGSLRLSCAASGFDFADYAMHWVRQAPGKGLEWVSAITWNGGHTDYADSVKGRFTISRDNSKNTLYLQMNSLRAEDTAVYYCAKVSYLSTASSLDYWGQGTLVTVSSASTKGPSVFPLAPSSKSTSGGTAALGCLVKDYFPEPVTVSWNSGALTSGVHTFPAVLQSSGLYSLSSVVTVPSSSLGTQTYICNVNHKPSNTKVDKKVEPKSCDKTHTCPPCPAPPAAGPSVFLFPPKPKDTLMISRTPEVTCVVVDVSHEDPEVKFNWYVDGVEVHNAKTKPREEQYNSTYRVVSVLTVLHQDWLNGKEYKCKVSNKALPAPIEKTISKAKGQPREPQVYTLPPSRDELTKNQVSLTCLVKGFYPSDIAVEWESNGQPENNYKTTPPVLDSDGSFLLYSKLTVDKSRWQQGNVFSCSVLHEALHSHYTQKSLSLSPGK
light: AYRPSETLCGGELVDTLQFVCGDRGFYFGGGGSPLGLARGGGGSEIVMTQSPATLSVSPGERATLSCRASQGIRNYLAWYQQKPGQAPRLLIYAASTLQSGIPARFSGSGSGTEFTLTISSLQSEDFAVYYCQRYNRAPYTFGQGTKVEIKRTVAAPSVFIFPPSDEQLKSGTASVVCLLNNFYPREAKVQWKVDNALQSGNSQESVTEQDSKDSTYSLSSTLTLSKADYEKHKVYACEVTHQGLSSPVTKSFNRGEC
notes: Undigested; MMP2/9 substrate PLGLAR; also called anti-TNFα shielded antibody with IGF2-based masking domain; EAC188/EAC189
B6: TAVO580585 (antibody, human IgG1, kappa)
heavy: GILEECCFRSCDLALLETYCAGGGGSPLGLAGGGGGSEVQLVESGGGLVQPGGSLRLSCAASGFTFDDYAMHWVRQAPGKGLEWVSAITWNSGHIDYADSVKGRFTISRDNSKNTLYLQMNSLRAEDTAVYYCAKVSYLSTASSLDYWGQGTLVTVSSASTKGPSVFPLAPSSKSTSGGTAALGCLVKDYFPEPVTVSWNSGALTSGVHTFPAVLQSSGLYSLSSVVTVPSSSLGTQTYICNVNHKPSNTKVDKKVEPKSCDKTHTCPPCPAPPAAGPSVFLFPPKPKDTLMISRTPEVTCVVVDVSHEDPEVKFNWYVDGVEVHNAKTKPREEQYNSTYRVVSVLTVLHQDWLNGKEYKCKVSNKALPAPIEKTISKAKGQPREPQVYTLPPSRDELTKNQVSLTCLVKGFYPSDIAVEWESNGQPENNYKTTPPVLDSDGSFLLYSKLTVDKSRWQQGNVFSCSVLHEALHSHYTQKSLSLSPGK
light: AYRPSETLCGGELVDTLQFVCGDRGFAFGGGGSPLGLAGGGGGSDIVMTQSPDSLAVSLGERATINCRASQGIRNYLAWYQQKPGQAPKLLIYAASTLQSGVPDRFSGSGSGTDFTLTISSLQAEDVAVYYCQRYNRAPYTFGQGTKVEIKRTVAAPSVFIFPPSDEQLKSGTASVVCLLNNFYPREAKVQWKVDNALQSGNSQESVTEQDSKDSTYSLSSTLTLSKADYEKHKVYACEVTHQGLSSPVTKSFNRGEC
notes: Variant IGF2 mask; ADA-H2 / ADA-L2; also called EAC580/EAC585
B7: TAVO584585 (antibody, human IgG1, kappa)
heavy: GILEECCFRSCDLALLETYCAGGGGSPLGLAGGGGGSQVQLVESGGGVVQPGGSLRLSCAASGFDFADYAMHWVRQAPGKGLEWVSAITWNGGHTDYADSVKGRFTISRDNSKNTLYLQMNSLRAEDTAVYYCAKVSYLSTASSLDYWGQGTLVTVSSASTKGPSVFPLAPSSKSTSGGTAALGCLVKDYFPEPVTVSWNSGALTSGVHTFPAVLQSSGLYSLSSVVTVPSSSLGTQTYICNVNHKPSNTKVDKKVEPKSCDKTHTCPPCPAPPAAGPSVFLFPPKPKDTLMISRTPEVTCVVVDVSHEDPEVKFNWYVDGVEVHNAKTKPREEQYNSTYRVVSVLTVLHQDWLNGKEYKCKVSNKALPAPIEKTISKAKGQPREPQVYTLPPSRDELTKNQVSLTCLVKGFYPSDIAVEWESNGQPENNYKTTPPVLDSDGSFLLYSKLTVDKSRWQQGNVFSCSVLHEALHSHYTQKSLSLSPGK
light: AYRPSETLCGGELVDTLQFVCGDRGFAFGGGGSPLGLAGGGGGSDIVMTQSPDSLAVSLGERATINCRASQGIRNYLAWYQQKPGQAPKLLIYAASTLQSGVPDRFSGSGSGTDFTLTISSLQAEDVAVYYCQRYNRAPYTFGQGTKVEIKRTVAAPSVFIFPPSDEQLKSGTASVVCLLNNFYPREAKVQWKVDNALQSGNSQESVTEQDSKDSTYSLSSTLTLSKADYEKHKVYACEVTHQGLSSPVTKSFNRGEC
notes: Variant IGF2 mask; ADA-H4X / ADA-L2; also called EAC584/EAC585

Key:
recombinant human TNFα [1] = biological target: T1, recombinant human TNFα (human, UniProt P01375 77-233); test: cell-based or functional assay
recombinant human TNFα [2] = biological target: T1, recombinant human TNFα; test: ELISA, recombinant human TNFα coated at 1 µg/mL, HRP anti-human secondary
Experimental: In this assay, 1 μg/mL recombinant human TNFα (R&D systems) was coated on an ELISA plate. Increasing concentrations of anti-TNFα shielded antibodies were applied on the plate and their binding to the recombinant human TNFα was detected by HRP-conjugated anti-human secondary antibody.

recombinant human TNFα [3] = biological target: T1, recombinant human TNFα; test: ELISA on human TNFα

T1 sequence (P01375 77-233 limits assumed): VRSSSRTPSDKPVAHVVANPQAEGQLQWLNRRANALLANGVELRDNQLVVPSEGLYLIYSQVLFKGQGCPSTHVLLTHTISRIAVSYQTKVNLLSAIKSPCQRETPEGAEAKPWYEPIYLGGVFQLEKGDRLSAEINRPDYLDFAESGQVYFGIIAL

Binder | HEK-Blue TNFα reporter assay: potency in blocking TNFα functional activity, fold lower than TAVO167127 (recombinant human TNFα [1]) | fold lower binding affinity than TAVO167127 (recombinant human TNFα [2]) | binding result (recombinant human TNFα [2]) | binding result (recombinant human TNFα [3])
B1 | ~50 fold | ≥ 5 fold | – | –
B2 | – | – | binds | –
B3 | ~50 fold | ≥ 5 fold | – | –
B4 | ~50 fold | ≥ 5 fold | – | –
B5 | ~50 fold | ≥ 5 fold | – | –
B6 | – | – | – | binds
B7 | – | – | – | binds
